Series [1] deals with T1, Ac-DEVD-CHO.
T1 chain: DEVD

The target in series [2] is T2, HILR-030 (cyclo-[Pro-Arg-Gly-Pro-Arg-Pro-Val-Trp-Trp-Gpa-Gpa-Trp-Trp-Gpa-Gpa-Trp-Trp]).
T2 chain: PRGPRPVWWXXWWXXXW

“Also recorded” adds a separate entry of the source.

B1: recombinant human caspase 3 enzyme (protein)
chain: SGISLDNSYKMDYPEMGLCIIINNKNFHKSTGMTSRSGTDVDAANLRETFRNLKYEVRNKNDLTREEIVELMRDVSKEDHSKRSSFVCVLLSHGEEGIIFGTNGPVDLKKITNFFRGDRCRSLTGKPKLFIIQACRGTELDCGIETDSGVDDDMACHKIPVEADFLYAYSTAPGYYSWRNSKDGSWFIQSLCAMLKQYADKLEFMHILTRVNRKVATEFESFSFDATFHAKKQIPCIVSMLTKELYFYH
For the protein B1, the “caspase-3 activity (Apo-ONE Homogeneous Caspase-3/7 assay, cleavage of Z-DEVD-R110)” value in series [1] is reported as “inhibited the activity of caspase-3 in a dose-dependent manner, giving rise to IC50s within the expected range; also recorded: inhibited the caspase-3 activity in a dose-dependent fashion”; in series [2] it was “inhibited the caspase-3 activity in a dose-dependent fashion”.

The record behind these values is US20170313746.
